Each binder was assayed against Calmodulin (UniProt P0DP23 1-149) (assay: other fluorescence titration).

Kd [µM] | Binder
1.05 | YTLIWKALKKAYEIQKNK (domain or fragment) [BSAT1R_(215-232), FRET biosensor with AT1R a.a. 215-232 (part of SMD3) between EYFPc and ECFP]
13.9 | DRYLAIVHPMKSRLRRT (domain or fragment) [BSAT1R_(125-141), FRET biosensor with AT1R a.a. 125-141 (SMD2) between EYFPc and ECFP]
0.51 | FKRYFLQLLKYIPPKAKSH (domain or fragment) [BSAT1R_(309-327), FRET biosensor with AT1R a.a. 309-327 (SMD4JM) between EYFPc and ECFP]
6.6 | AKRYALQLLKAIPPKAQSH (domain or fragment) [BSAT1R_(309-327mut), FRET biosensor with mutant AT1R a.a. 309-327 (SMD4JM) between EYFPc and ECFP]
4.52 | YTLIAKALKKAAEIQKNQPRNDDIAKII (domain or fragment) [BSAT1R_(215-242mut), FRET biosensor with mutant AT1R a.a. 215-242 (SMD3) between EYFPc and ECFP]
0.36 | YTLIWKALKKAYEIQKNKPRNDDIFKII (domain or fragment) [BSAT1R_(215-242), FRET biosensor with AT1R a.a. 215-242 (entire SMD3) between EYFPc and ECFP]
> 318 | DQALAIVHPMKSQLRQT (domain or fragment) [BSAT1R_(125-141mut), FRET biosensor with mutant AT1R a.a. 125-141 (SMD2) between EYFPc and ECFP]
